Measurements: patent US20240173425A1 (Eli Lilly, published 2024)
Residue numbers refer to the chain shown, from its start. In names and notes the source's numbering stands. Values belong to the binder of their own block, whether it stands above or below them.

Legend:
[1] = target: T1, cynomolgus monkey CD33 ECD 18-232-His (cynomolgus monkey); assay: SPR, Biacore 8K, antibody captured on Protein A chip, CD33 ECD-His as analyte, 37 C, 1:1 model
T1 construct: also called cynomolgus monkey CD33 extra-cellular domain; not shown: His tag
T1 sequence (chain, as listed by the source): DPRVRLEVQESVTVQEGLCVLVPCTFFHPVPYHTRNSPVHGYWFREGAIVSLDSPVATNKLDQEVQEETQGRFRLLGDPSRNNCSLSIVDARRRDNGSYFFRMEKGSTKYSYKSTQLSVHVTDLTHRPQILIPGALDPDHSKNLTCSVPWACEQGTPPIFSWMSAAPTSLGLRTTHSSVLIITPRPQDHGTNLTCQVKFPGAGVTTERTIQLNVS
Method: (§1) The affinity and binding kinetics of the exemplified anti-human CD33 antibodies to human and cynomolgus monkey CD33 ECD 18-232-His proteins was determined by surface plasmon resonance using Biacore 8K (GE Healthcare). Briefly, per the Instrument Handbook the antibody was captured on a Biacore Protein A chip followed by flowing CD33 ECD from 200 nM down to 0.782 nM in 2-fold serial dilution in PBS-P20-BSA (0.005% surfactant P20, 0.1 mg/mL BSA). All measurements were carried out at 37° C. Multi-cycle kinetics setting that ran each analyte concentration in a separate cycle regenerating the surface after each sample injection was used. The regeneration was optimized to maintain consistent surface properties from cycle to cycle. Each cycle started with a 3 minute injection of 0.1 μg/mL of the antibody at 10 μl/min flow rate, followed by 3 min injection of antigen at 50 μl/min flow rate and a 15 min dissociation phase in PBS-P20-BSA. The chip surface was then regenerated with 30 seconds injection of pH 1.5, 10 mM glycine buffer at 50 μl/min flow rate three times. The data was fit to a 1:1 binding model to derive kₐ and kd, and to calculate KD.

[2] = target: T2, human CD33 ECD 18-232-His (human, UniProt P20138 18-232); assay: as above
T2 construct: Printed as 'CD33 ECD 18-232-His'; also called human CD33 extra-cellular domain; not shown: His tag
T2 sequence (P20138 18-232): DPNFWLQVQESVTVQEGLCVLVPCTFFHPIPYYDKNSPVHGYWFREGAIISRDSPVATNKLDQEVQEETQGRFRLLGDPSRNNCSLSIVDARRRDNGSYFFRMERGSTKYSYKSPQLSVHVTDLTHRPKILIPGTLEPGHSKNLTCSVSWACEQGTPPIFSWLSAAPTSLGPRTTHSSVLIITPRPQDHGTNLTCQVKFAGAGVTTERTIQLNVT
Method: as §1

[3] = target: T1, cynomolgus monkey CD33 ECD 18-232-His; assay: SPR, Biacore 8K, conjugate captured on Protein A chip, CD33 ECD-His as analyte, 37 C, 1:1 model
Method: as §1

[4] = target: T2, human CD33 ECD 18-232-His; assay: as above
Method: as §1

[5] = target: T3, human CD33 on the cell surface of human monocytes / myeloid cells (human, UniProt P20138 18-364); assay: FACS on human monocytes (gated from human PBMC), Alexa Fluor 647-labelled antibody, 4-fold dilutions, 30 min at 4 C, mean fluorescence intensity
T3 construct: Native CD33 on primary human monocytes from PBMC; also called cell surface CD33; SIGLEC-3
T3 sequence (P20138 18-364 limits assumed): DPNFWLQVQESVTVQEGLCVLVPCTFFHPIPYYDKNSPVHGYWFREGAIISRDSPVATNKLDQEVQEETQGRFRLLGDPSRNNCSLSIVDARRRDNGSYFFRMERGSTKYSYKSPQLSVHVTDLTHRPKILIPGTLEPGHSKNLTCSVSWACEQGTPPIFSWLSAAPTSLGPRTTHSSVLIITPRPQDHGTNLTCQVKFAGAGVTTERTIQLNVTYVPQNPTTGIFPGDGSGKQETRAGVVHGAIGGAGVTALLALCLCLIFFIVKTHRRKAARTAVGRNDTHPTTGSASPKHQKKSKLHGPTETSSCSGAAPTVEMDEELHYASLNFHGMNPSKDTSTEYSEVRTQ
Method: Freshly isolated cells PBMCs were resuspended at 2×10⁶ cells/mL and allowed to rest for 15 minutes at room temperature, then plated at 100 μL/well into a round bottom 96-well plate (COSTAR®) and washed with FACS buffer (PBS containing 2% fetal bovine serum from Corning®). […] Data analysis was performed using FlowJo software and statistical analysis was performed using GraphPad Prism 9.

B1: anti-human CD33 antibody Ab2 (antibody, human IgG1, kappa, L234A L235A, V domains shown)
VH: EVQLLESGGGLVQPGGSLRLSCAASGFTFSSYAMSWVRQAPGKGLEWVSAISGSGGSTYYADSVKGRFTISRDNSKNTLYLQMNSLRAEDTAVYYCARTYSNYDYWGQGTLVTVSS
VL: DIQMTQSPSSLSASVGDRVTITCQASQPTFNYLNWYQQKPGKAPKLLIYDASNLQTGVPSRFSGSGSGTDFTFTISSLQPEDIATYYCQQYEDLPTFGPGTKVDIKR
notes: Fully human IgG1AAA with S124C and A378C (EU numbering); also called anti-human CD33 Ab2
Kd [1]: 4.28 nM | koff [1]: 0.00279 s⁻¹ | kon [1]: 653000 M⁻¹ s⁻¹ | Kd [2]: 1.14 nM | koff [2]: 0.000516 s⁻¹ | kon [2]: 454000 M⁻¹ s⁻¹

B2: anti-human CD33 Ab2 GC conjugate of Example 1b (antibody, human IgG1, kappa, L234A L235A, V domains shown)
VH: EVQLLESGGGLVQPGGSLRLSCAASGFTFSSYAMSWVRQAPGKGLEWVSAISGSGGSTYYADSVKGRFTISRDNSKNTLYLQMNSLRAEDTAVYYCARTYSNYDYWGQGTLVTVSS
VL: B1 VL
modifications: glucocorticoid receptor agonist payload-linker GC-L (Preparation 8, maleimide) conjugated to the engineered cysteines at positions 124 and 378 (EU numbering) of the heavy chain; n is 4 (average DAR 3.92 to 3.97)
Kd [3]: 4.65 nM | koff [3]: 0.00478 s⁻¹ | kon [3]: 1.03e+06 M⁻¹ s⁻¹ | Kd [4]: 1.47 nM | koff [4]: 0.000645 s⁻¹ | kon [4]: 439000 M⁻¹ s⁻¹

The remaining lines, values ahead:

Kd [2]: 3.4 nM | koff [2]: 0.00118 s⁻¹ | kon [2]: 346000 M⁻¹ s⁻¹
B3: anti-human CD33 antibody Ab1 (antibody, human IgG1, kappa, L234A L235A, V domains shown)
VH: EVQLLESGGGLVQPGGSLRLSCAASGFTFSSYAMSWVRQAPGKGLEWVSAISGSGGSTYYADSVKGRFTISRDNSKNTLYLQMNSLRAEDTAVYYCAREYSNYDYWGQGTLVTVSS
VL: B1 VL with P28D, T29V, N31R
notes: Fully human IgG1 with L234A, L235A, P329A (IgG1AAA, effector null) and engineered cysteines S124C and A378C (EU numbering), all already in the HC entry

Kd [1]: 0.812 nM | koff [1]: 0.00108 s⁻¹ | kon [1]: 1.34e+06 M⁻¹ s⁻¹ | Kd [2]: 0.854 nM | koff [2]: 0.000486 s⁻¹ | kon [2]: 570000 M⁻¹ s⁻¹ | EC50 (read off the curve) [5]: ~5 ng/mL
B4: anti-human CD33 antibody Ab3 (antibody, human IgG1, kappa, L234A L235A, V domains shown)
VH: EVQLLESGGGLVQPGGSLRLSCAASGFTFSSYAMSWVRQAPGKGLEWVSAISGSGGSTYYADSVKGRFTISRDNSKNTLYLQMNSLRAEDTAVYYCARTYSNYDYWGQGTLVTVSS
VL: B1 VL with F30Y, N31I
notes: Fully human IgG1AAA with S124C and A378C (EU numbering)
